Laboratory results from patent publication US20240052034A1 (PANDION OPERATIONS, published 2024).

T1: Fc-tagged mouse PD-1 (mouse, UniProt Q02242 25-167, limits assumed)
T1 construct: Printed 'Fe-tagged', read as Fc-tagged; also called Fe-tagged mouse PD-1 (so in the source); not shown: Fc tag
T1 sequence (looked up): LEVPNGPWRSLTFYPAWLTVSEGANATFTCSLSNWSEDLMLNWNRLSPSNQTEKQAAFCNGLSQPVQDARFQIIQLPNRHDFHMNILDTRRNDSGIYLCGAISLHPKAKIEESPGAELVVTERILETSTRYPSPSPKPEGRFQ

T2: mouse PD-1 (mouse, UniProt Q02242 25-167, limits assumed)
T2 sequence (looked up): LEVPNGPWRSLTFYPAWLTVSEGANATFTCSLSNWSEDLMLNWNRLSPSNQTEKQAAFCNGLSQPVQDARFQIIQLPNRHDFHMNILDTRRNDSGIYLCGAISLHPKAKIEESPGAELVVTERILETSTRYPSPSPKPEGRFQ


How the values were obtained:
[1] = target: T3, Fc-tagged cynomolgus PD-1 (cynomolgus, UniProt B0LAJ3 25-170); test: BLI (biosensor): Fc-tagged PD-1 on anti-human IgG Fc tips, fragment in solution
T3 construct: Printed 'Fe-tagged', read as Fc-tagged; also called cyno PD-1; Fe-tagged cynomolgus PD-1 (so in the source)
T3 sequence (B0LAJ3 entry or part of it limits assumed): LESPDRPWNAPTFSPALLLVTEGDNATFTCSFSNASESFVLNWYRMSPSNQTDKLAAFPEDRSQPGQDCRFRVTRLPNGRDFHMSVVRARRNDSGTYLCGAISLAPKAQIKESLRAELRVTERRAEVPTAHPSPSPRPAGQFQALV
Procedure: (§1) Anti-human IgG Fc (AHC) or Streptavidin (SA) biosensor were equilibrated in assay buffer for 20 minutes. Fe-tagged mouse and cynomolgus PD-1 was diluted to 5 μg/mL and biotinylated huPD-1 article was diluted to 0.5 μg/mL in assay buffer (1×PBS, 1% BSA, 0.05% Tween20). […] PD-1 was loaded on tips for 180 s followed by a 180 s association phase with PD-1 and 180 s dissociation phase in assay buffer.

Fc-tagged mouse PD-1 = target: T1, Fc-tagged mouse PD-1; test: as above
Procedure: as §1

biotinylated huPD-1 = target: T4, biotinylated huPD-1 (human, UniProt Q15116 25-167, limits assumed, biotinylated (site not stated)); test: BLI (biosensor): biotinylated huPD-1 on streptavidin tips, fragment in solution
T4 construct: also called human PD-1
T4 sequence (Q15116 25-167 limits assumed): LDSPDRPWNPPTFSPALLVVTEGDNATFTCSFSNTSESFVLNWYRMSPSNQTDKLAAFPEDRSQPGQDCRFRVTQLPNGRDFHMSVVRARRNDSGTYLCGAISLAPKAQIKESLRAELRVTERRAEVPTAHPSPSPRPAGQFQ
Procedure: as §1

mouse PD-1 = target: T2, mouse PD-1; test: ELISA: plate-coated PD-1, detection by anti-kappa-HRP
human PD-1 = target: T5, human PD-1 (human, UniProt Q15116 25-167, limits assumed); test: as above
T5 construct: also called huPD-1
T5 sequence (Q15116 25-167 limits assumed): as above

cynomolgus PD-1 = target: T6, cynomolgus PD-1 (cynomolgus, UniProt B0LAJ3 25-170); test: as above
T6 construct: also called cyno PD-1
T6 sequence (B0LAJ3 entry or part of it limits assumed): as the sequence (B0LAJ3 entry or part of it limits assumed) above

| Kd [1] | Kd (biotinylated huPD-1) | binding result (mouse PD-1) | binding result (human PD-1) | binding result (cynomolgus PD-1) | Binder | binding result (Fc-tagged mouse PD-1) |
| --- | --- | --- | --- | --- | --- | --- |
| 58.6 nM | 89.9 nM |  |  |  | scFv moiety of the PD1AB37 (scFv, also called PD1AB37 scFv) scFv: EVQLLESGGGLVQPGGSLRLSCAASGFTFSSYDMSWVRQAPGKGLEWVSGITISGGSTYYADSVKGRFTISRDNSKNTLYLQMNSLRAEDTAVYYCARGRGGSGWLDYWGQGTTVTVSSGGGGSGGGGSGGGGSGGGGSDIVMTQSPDSLAVSLGERATINCKSSQSVLYSPNNKNYLAWYQQKPGQPPKLLIYWASTRESGVPDRFSGSGSGTDFTLTISSLQAEDVAVYYCQQYYTTPPTFGQGTRLEIK | no binding |
|  |  | binds | binds | binds | PD1AB69 (bispecific antibody, human IgG1, kappa) heavy: EVQLLESGGGLVQPGGSLRLSCAASGFTFSSYDMSWVRQAPGKGLEWVSGITISGGSTYYADSVKGRFTISRDNSKNTLYLQMNSLRAEDTAVYYCARGRGGSGWLDYWGQGTTVTVSSASTKGPSVFPLAPSSKSTSGGTAALGCLVKDYFPEPVTVSWNSGALTSGVHTFPAVLQSSGLYSLSSVVTVPSSSLGTQTYICNVNHKPSNTKVDKKVEPKSCDKTHTCPPCPAPEAAGAPSVFLFPPKPKDTLMISRTPEVTCVVVDVSHEDPEVKFNWYVDGVEVHNAKTKPREEQYNSTYRVVSVLTVLHQDWLNGKEYKCKVSNKALPAPIEKTISKAKGQPREPQVYTLPPSREEMTKNQVSLTCLVKGFYPSDIAVEWESNGQPENNYKTTPPVLDSDGSFFLYSKLTVDKSRWQQGNVFSCSVMHEALHNHYTQKSLSLSPGGGGSEGGGSEGGGSEDIQMTQSPSSLSASVGDRVTITCQASRDILNYLAWYQQKPGKAPKLLIYAASSLQSGVPSRFSGSGSGTDFTLTISSLQPEDFATYYCQQSYSTPPTFGCGTKVDIKGGGGSGGGGSGGGGSGGGGSEVQLVQSGAEVKKPGASVKVSCKASGYSFTTYYMHWVRQAPGQCLEWMGIINPSGGSTSYAQKFQGRVTMTRDTSTSTVYMELSSLRSEDTAVYYCASGWVYWGQGTLVTVSS light: not shown |  |
| 30.3 nM | 32.6 nM |  |  |  | Fab moiety of the PD1AB53 (Fab, V domains shown, also called PD1AB53 Fab) VH: EVQLLESGGGLVQPGGSLRLSCAASGFTFSSYDMSWVRQAPGKGLEWVSGITISGGSTYYADSVKGRFTISRDNSKNTLYLQMNSLRAEDTAVYYCARGRGGSGWLDYWGQGTTVTVSS VL: not shown | no binding (tested: PD1AB53 Fab: dilution series from 500 nM) |
